The labels stand for the following.
B1: TBC1D10A (parent)
chain: WCLVQICEKYLPGYYSEKLEAIQL
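Further: lentivirally expressed fusions sorted by FACS into six bins by GFP to DsRed ratio, PSI derived from sequencing read proportions per bin multiplied by bin number.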

The series covers variants of B1. Description: protein stability index of a GFP-peptide fusion (GPS, HEK-293T) (PSI 1-6); higher = more stable. Particulars: c terminus: a fixed tail appended.
On to WCLVQICEKYLPGYYSEMLEAIQL [K18M], for which the protein stability index was 2.98.

In the case of WCLVQICEKYLPGYYSEQLEAIQL [K18Q], the protein stability index is 1.91.

On to WCLVQICEKYLPGYYSECLEAIQL [K18C], for which the protein stability index worked out at 3.08.

With WCLVQICEKYLPGYYSERLEAIQL [K18R], the protein stability index was 2.22.

As to WCLVQICEKYLPGYYSEWLEAIQL [K18W], the protein stability index is 3.09.

Consider WCLVQICEKYLPGYYSEDLEAIQL [K18D], for which the protein stability index worked out at 1.92.

For the variant WCLVQICEKYLPGYYSEVLEAIQL [K18V], the protein stability index stood at 3.17.

Consider WCLVQICEKYLPGYYSETLEAIQL [K18T], for which the protein stability index was 2.

Consider WCLVQICEKYLPGYYSEHLEAIQL [K18H], for which the protein stability index amounted to 3.99.

Consider WCLVQICEKYLPGYYSELLEAIQL [K18L], for which the protein stability index worked out at 1.83.

Take WCLVQICEKYLPGYYSEILEAIQL [K18I]: the protein stability index worked out at 2.1.

Take WCLVQICEKYLPGYYSEKLHAIQL [E20H]: the protein stability index stood at 3.07.

Take WCLVQICEKYLPGYYSEKLTAIQL [E20T]: the protein stability index was found to be 1.47.

As to WCLVQICEKYLPGYYSEKLSAIQL [E20S], the protein stability index stood at 2.64.

For the variant WCLVQICEKYLPGYYSEKLQAIQL [E20Q], the protein stability index amounted to 2.79.

Take WCLVQICEKYLPGYYSEKLKAIQL [E20K]: the protein stability index came to 3.35.

For WCLVQICEKYLPGYYSEKLDAIQL [E20D], the protein stability index worked out at 1.79.

For the variant WCLVQICEKYLPGYYSEKLRAIQL [E20R], the protein stability index worked out at 1.8.

As to WCLVQICEKYLPGYYSEKLAAIQL [E20A], the protein stability index came out at 2.21.

In the case of WCLVQICEKYLPGYYSEKLIAIQL [E20I], the protein stability index turned out to be 2.3.

For the variant WCLVQICEKYLPGYYSEKLWAIQL [E20W], the protein stability index was found to be 1.74.

As to WCLVQICEKYLPIYYSEKLEAIQL [G13I], the protein stability index was found to be 1.54.

Turning to WCLVQICEKYLPYYYSEKLEAIQL [G13Y], the protein stability index was 5.24.

Consider WCLVQICEKYLPWYYSEKLEAIQL [G13W], for which the protein stability index is 2.7.

Regarding WCLVQICEKYLPMYYSEKLEAIQL [G13M], the protein stability index was found to be 3.53.

With WCLVQICEKYLPSYYSEKLEAIQL [G13S], the protein stability index is 2.02.

Regarding WCLVQICEKYLPKYYSEKLEAIQL [G13K], the protein stability index amounted to 2.91.

Turning to WCLVQICEKYLPGYCSEKLEAIQL [Y15C], the protein stability index was determined as 2.35.

Consider WCLVQICEKYLPGYWSEKLEAIQL [Y15W], for which the protein stability index is 2.85.

Regarding WCLVQICEKYLPGYFSEKLEAIQL [Y15F], the protein stability index worked out at 1.24.

For the variant WCLVQICEKYLPGYYSKKLEAIQL [E17K], the protein stability index was determined as 1.66.

Regarding WCLVQICEKYLPGYYSLKLEAIQL [E17L], the protein stability index is 3.48.

Consider WCLVQICEKYLPGYYSCKLEAIQL [E17C], for which the protein stability index stood at 2.56.

For the variant WCLVQICEKYLPGYYSQKLEAIQL [E17Q], the protein stability index is 1.94.

In the case of WCLVQICEKYLPGYYSHKLEAIQL [E17H], the protein stability index came to 1.77.

In the case of WCLVQICEKYLPGYYSIKLEAIQL [E17I], the protein stability index was 2.74.

For WCLVQICEKYLPGYYSMKLEAIQL [E17M], the protein stability index was 3.65.

With WCLVQICEKYLPGYYSVKLEAIQL [E17V], the protein stability index stood at 3.99.

As to WCLVQICEKYLPGYYSPKLEAIQL [E17P], the protein stability index came to 2.03.

Turning to WCLVQICEKYLPGPYSEKLEAIQL [Y14P], the protein stability index came to 2.61.

For WCLVQICEKYLPGKYSEKLEAIQL [Y14K], the protein stability index is 3.06.

For WCLVQICEKYLPGNYSEKLEAIQL [Y14N], the protein stability index turned out to be 3.59.

Take WCLVQICEKYLPGEYSEKLEAIQL [Y14E]: the protein stability index was found to be 1.59.

WCLVQICEKYLPGDYSEKLEAIQL [Y14D]: the protein stability index came to 3.02.

Regarding WCLVQICEKYLPGVYSEKLEAIQL [Y14V], the protein stability index was 3.94.

WCLVQICEKYLPGYYSEKLEAIRL [Q23R]: the protein stability index stood at 2.52.

As for WCLVQICEKYLPGYYSEKLEAIKL [Q23K], the protein stability index was 2.75.

Consider WCLVQICEKYLPGYYSEKLEAIFL [Q23F], for which the protein stability index was determined as 3.75.

On to WCLVQICEKYLPGYYSEKLEAITL [Q23T], for which the protein stability index came to 5.09.

Take WCLVQICEKYLPGYYSEKLEAIHL [Q23H]: the protein stability index came to 2.13.

Regarding WCLVQICEKYLPGYYSEKLEAIWL [Q23W], the protein stability index is 2.58.

For WCLVQICEKYLPGYYSEKLEAISL [Q23S], the protein stability index is 3.29.

WCLVQICEKYLPGYYSEKLEAIEL [Q23E]: the protein stability index was 2.44.

For the variant WCLVQICEKYLPGYYSEKLEAIML [Q23M], the protein stability index is 2.93.

Take WCLVQICEKYLPGYYSEKLEAINL [Q23N]: the protein stability index worked out at 3.14.

Take WCLVQICEKYLPGYYSEKLEAIIL [Q23I]: the protein stability index was determined as 3.3.

With WCLVQICEKYLPGYYSEKLEAIAL [Q23A], the protein stability index stood at 4.11.

WCLVQICEKYLPGYYSEKLEAIVL [Q23V]: the protein stability index came to 2.11.

With WCLVQICEKYLPGYYSEKLEAIPL [Q23P], the protein stability index is 1.64.

For the variant WCLVQICEKYLPGYYSEKLEAQQL [I22Q], the protein stability index worked out at 2.4.

For the variant WCLVQICEKYLPGYYSEKLEADQL [I22D], the protein stability index was 3.23.

As to WCLVQICEKYLPGYYSEKLEAEQL [I22E], the protein stability index came to 3.23.

As for WCLVQICEKYLPGYYSEKLEANQL [I22N], the protein stability index turned out to be 1.3.

On to WCLVQICEKYLPGYYSEKLEAGQL [I22G], for which the protein stability index was determined as 2.35.

In the case of WCLVQICEKYLPGYYSEKLEAKQL [I22K], the protein stability index came to 2.86.

Consider WCLVQICEKYLPGYYSEKLEATQL [I22T], for which the protein stability index stood at 2.67.

In the case of WCLVQICEKYLPGYYSEKLEALQL [I22L], the protein stability index was determined as 4.01.

With WCLVQICEKYLPGYYSEKLEAMQL [I22M], the protein stability index is 2.21.

Consider WCLVQICEKYLPGYYSEKLEAVQL [I22V], for which the protein stability index turned out to be 3.09.

Regarding WCLVQICEKYLPGYYSEKLEASQL [I22S], the protein stability index came to 1.72.

With WCLVQICEKYLPGYYPEKLEAIQL [S16P], the protein stability index was determined as 2.1.

As to WCLVQICEKYLPGYYDEKLEAIQL [S16D], the protein stability index is 2.24.

For the variant WCLVQICEKYLPGYYYEKLEAIQL [S16Y], the protein stability index was 2.7.

Regarding WCLVQICEKYLPGYYEEKLEAIQL [S16E], the protein stability index worked out at 4.03.

As to WCLVQICEKYLPGYYWEKLEAIQL [S16W], the protein stability index was 3.94.

For WCLVQICEKYLPGYYHEKLEAIQL [S16H], the protein stability index amounted to 1.6.

For the variant WCLVQICEKYLPGYYSEKEEAIQL [L19E], the protein stability index was determined as 4.16.

In the case of WCLVQICEKYLPGYYSEKNEAIQL [L19N], the protein stability index stood at 3.63.

Regarding WCLVQICEKYLPGYYSEKCEAIQL [L19C], the protein stability index was 4.85.

As for WCLVQICEKYLPGYYSEKVEAIQL [L19V], the protein stability index amounted to 2.92.

In the case of WCLVQICEKYLPGYYSEKQEAIQL [L19Q], the protein stability index is 3.88.

As for WCLVQICEKYLPGYYSEKPEAIQL [L19P], the protein stability index came to 1.99.

As for WCLVQICEKYLPGYYSEKLEEIQL [A21E], the protein stability index is 3.38.

As for WCLVQICEKYLPGYYSEKLETIQL [A21T], the protein stability index amounted to 2.15.

Take WCLVQICEKYLPGYYSEKLERIQL [A21R]: the protein stability index was found to be 2.99.

Take WCLVQICEKYLPGYYSEKLEMIQL [A21M]: the protein stability index is 3.73.

Regarding WCLVQICEKYLPGYYSEKLEQIQL [A21Q], the protein stability index turned out to be 2.37.

On to WCLVQICEKYLPGYYSEKLEGIQL [A21G], for which the protein stability index amounted to 2.02.

Consider WCLVQICEKYLPGYYSEKLELIQL [A21L], for which the protein stability index came to 4.51.

For the variant WCLVQICEKYLPGYYSEKLECIQL [A21C], the protein stability index was determined as 4.65.

For the variant WCLVQICEKYLPGYYSEKLEHIQL [A21H], the protein stability index came out at 3.56.

For WCLVQICEKYLPGYYSEKLEPIQL [A21P], the protein stability index stood at 3.77.

On to WCLVQICEKYLPGYYSEKLEAIQT [L24T], for which the protein stability index was 2.55.

Consider WCLVQICEKYLPGYYSEKLEAIQD [L24D], for which the protein stability index came out at 2.69.
